B1: C-type lectin domain family 2 member D (Homo sapiens), Q9UHP7-1 (parent)
chain: MHDSNNVEKDITPSELPANPGCLHSKEHSIKATLIWRLFFLIMFLTIIVCGMVAALSAIRANCHQEPSVCLQAACPESWIGFQRKCFYFSDDTKNWTSSQRFCDSQDADLAQVESFQELNFLLRYKGPSDHWIGLSREQGQPWKWINGTEWTRQFPILGAGECAYLNDKGASSARHYTERKWICSKSDIHV

Variants of: B1
Details: with klrb1_human KLRB1, Q12918
klrb1_human KLRB1, Q12918, sequence (Q12918 whole entry): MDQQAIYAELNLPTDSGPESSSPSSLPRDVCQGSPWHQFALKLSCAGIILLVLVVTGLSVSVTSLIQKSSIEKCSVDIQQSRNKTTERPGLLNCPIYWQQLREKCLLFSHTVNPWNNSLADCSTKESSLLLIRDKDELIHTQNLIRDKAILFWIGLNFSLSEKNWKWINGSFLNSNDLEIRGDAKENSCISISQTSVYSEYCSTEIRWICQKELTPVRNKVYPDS

| effect of a mutation on the interaction | Variant |
| --- | --- |
| disrupting interaction strength | K169E |
| disrupting interaction strength | R180E |
| decreasing interaction strength | Y165A |
| disrupting interaction strength | K181E |
| disrupting interaction strength | R175E |
| decreasing interaction strength | N167A |

Variants of: B1
Details: with klrb1_human KLRB1, Q12918
Remark: another data set of the same source

| effect of a mutation on the interaction | Variant |
| --- | --- |
| increasing interaction strength | K169E |

From IntAct's records for PubMed 21572041
